Assay type in all cases: functional, cell-based
Substrate in data set [1]: N[C@@H](CCC(=O)O)C(=O)O
The data set is described as follows: (§1) Substrate activity at human EAAT3 expressed in HEK293 cells by FLIPR membrane potential assay.

Substrate in data set [2]: N[C@H](C(=O)O)[C@H]1CC[C@@H]1C(=O)O
The description is as §1.

Substrate in data set [3]: N[C@@H](CCC(=O)O)C(=O)O
The data set is described as follows: (§2) Substrate activity at human EAAT1 expressed in HEK293 cells by FLIPR membrane potential assay.

Substrate in data set [4]: N[C@H](C(=O)O)[C@@H]1CC[C@H]1C(=O)O
The data set is described as §2.

Substrate in data set [5]: N[C@H](C(=O)O)[C@H]1CC[C@@H]1C(=O)O
Described as §2.

The term Km denotes the substrate concentration at which the rate is half of its maximum.

B1: Excitatory amino acid transporter 3 (Homo sapiens), P43005 (protein)
chain: MGKPARKGCEWKRFLKNNWVLLSTVAAVVLGITTGVLVREHSNLSTLEKFYFAFPGEILMRMLKLIILPLIISSMITGVAALDSNVSGKIGLRAVVYYFCTTLIAVILGIVLVVSIKPGVTQKVGEIARTGSTPEVSTVDAMLDLIRNMFPENLVQACFQQYKTKREEVKPPSDPEMNMTEESFTAVMTTAISKNKTKEYKIVGMYSDGINVLGLIVFCLVFGLVIGKMGEKGQILVDFFNALSDATMKIVQIIMCYMPLGILFLIAGKIIEVEDWEIFRKLGLYMATVLTGLAIHSIVILPLIYFIVVRKNPFRFAMGMAQALLTALMISSSSATLPVTFRCAEENNQVDKRITRFVLPVGATINMDGTALYEAVAAVFIAQLNDLDLGIGQIITISITATSASIGAAGVPQAGLVTMVIVLSAVGLPAEDVTLIIAVDWLLDRFRTMVNVLGDAFGTGIVEKLSKKELEQMDVSSEVNIVNPFALESTILDNEDSDTKKSYVNGGFAVDKSDTISFTQTSQF
As for B1, the Km in data set [1] stood at 9.9 µM; in data set [2], 300 µM.

B2: Excitatory amino acid transporter 1 (Homo sapiens), P43003 (protein)
chain: MTKSNGEEPKMGGRMERFQQGVRKRTLLAKKKVQNITKEDVKSYLFRNAFVLLTVTAVIVGTILGFTLRPYRMSYREVKYFSFPGELLMRMLQMLVLPLIISSLVTGMAALDSKASGKMGMRAVVYYMTTTIIAVVIGIIIVIIIHPGKGTKENMHREGKIVRVTAADAFLDLIRNMFPPNLVEACFKQFKTNYEKRSFKVPIQANETLVGAVINNVSEAMETLTRITEELVPVPGSVNGVNALGLVVFSMCFGFVIGNMKEQGQALREFFDSLNEAIMRLVAVIMWYAPVGILFLIAGKIVEMEDMGVIGGQLAMYTVTVIVGLLIHAVIVLPLLYFLVTRKNPWVFIGGLLQALITALGTSSSSATLPITFKCLEENNGVDKRVTRFVLPVGATINMDGTALYEALAAIFIAQVNNFELNFGQIITISITATAASIGAAGIPQAGLVTMVIVLTSVGLPTDDITLIIAVDWFLDRLRTTTNVLGDSLGAGIVEHLSRHELKNRDVEMGNSVIEENEMKKPYQLIAQDNETEKPIDSETKM
As for B2, the Km is 7.9 µM in data set [3], 96 µM in data set [4] and 300 µM in data set [5].
